{"source": "patent US20220218748", "proteins": {"B1": {"name": "membrane-bound IdeS (IdeS-tm) (protein)", "chain 1": "DSFSANQEIRYSEVTPYHVTSVWTKGVTPPAKFTQGEDVFHAPYVANQGWYDITKTFNGKDDLLCGAATAGNMLHWWFDQNKEKIEAYLKKHPDKQKIMFGDQELLDVRKVINTKGDQTNSELFNYFRDKAFPGLSARRIGVMPDLVLDMFINGYYLNVYKTQTTDVNRTYQEKDRRGGIFDAVFTRGDQSKLLTSRHDFKEKNLKEISDLIKKELTEGKALGLSHTYANVRINHVINLWGADFDSNGNLKAIYVTDSDSNASIGMKKYFVGVNSAGKVAISAKEIKEDNIGAQVLGLFTLSTGQDSWNQTN", "chain 2": "not shown"}, "B2": {"name": "secreted IdeS (IdeS-sec) (protein)", "chain": "DSFSANQEIRYSEVTPYHVTSVWTKGVTPPAKFTQGEDVFHAPYVANQGWYDITKTFNGKDDLLCGAATAGNMLHWWFDQNKEKIEAYLKKHPDKQKIMFGDQELLDVRKVINTKGDQTNSELFNYFRDKAFPGLSARRIGVMPDLVLDMFINGYYLNVYKTQTTDVNRTYQEKDRRGGIFDAVFTRGDQSKLLTSRHDFKEKNLKEISDLIKKELTEGKALGLSHTYANVRINHVINLWGADFDSNGNLKAIYVTDSDSNASIGMKKYFVGVNSAGKVAISAKEIKEDNIGAQVLGLFTLSTGQDSWNQTN"}}, "target": "human polyclonal IgG"}
{"protein": "B1", "values": [{"measurement": "cleavage of IgG, SDS-PAGE with Coomassie stain and anti-human Fc blot", "value": "Cleaved Ig appeared within 5 min and increased over time"}]}
{"protein": "B2", "values": [{"measurement": "cleavage ELISA", "value": "IdeS-sec efficiently cleaved human polyclonal IgG at different time points"}]}
